Results as given in patent US20160264664A1 (Ablynx, published 2016).

T1: mouse P2X7 (mouse, UniProt Q9Z1M0 1-595)
T1 construct: on transfected CHO or Hek293 cells, or endogenous on Yac-1 cells; also called mP2X7; mouse purinoceptor P2X7
T1 sequence: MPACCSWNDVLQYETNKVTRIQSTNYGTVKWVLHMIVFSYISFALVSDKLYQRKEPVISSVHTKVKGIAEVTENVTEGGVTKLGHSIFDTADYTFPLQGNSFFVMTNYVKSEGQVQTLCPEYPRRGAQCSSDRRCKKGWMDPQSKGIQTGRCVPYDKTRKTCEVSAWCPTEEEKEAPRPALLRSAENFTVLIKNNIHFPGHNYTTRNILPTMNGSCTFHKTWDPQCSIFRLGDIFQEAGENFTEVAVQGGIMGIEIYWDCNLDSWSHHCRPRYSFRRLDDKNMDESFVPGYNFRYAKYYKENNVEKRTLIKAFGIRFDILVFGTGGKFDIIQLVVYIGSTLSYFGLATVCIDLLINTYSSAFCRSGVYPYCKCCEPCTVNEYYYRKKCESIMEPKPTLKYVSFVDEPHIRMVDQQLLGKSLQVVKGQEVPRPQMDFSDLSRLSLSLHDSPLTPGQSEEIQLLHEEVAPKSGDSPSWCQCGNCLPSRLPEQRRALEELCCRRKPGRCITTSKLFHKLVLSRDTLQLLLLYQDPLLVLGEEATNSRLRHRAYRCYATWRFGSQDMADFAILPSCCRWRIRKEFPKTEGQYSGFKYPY

T2: human P2X4 (human, UniProt Q99571 1-388)
T2 construct: whole, on cells; also called hP2X4
T2 sequence (looked up): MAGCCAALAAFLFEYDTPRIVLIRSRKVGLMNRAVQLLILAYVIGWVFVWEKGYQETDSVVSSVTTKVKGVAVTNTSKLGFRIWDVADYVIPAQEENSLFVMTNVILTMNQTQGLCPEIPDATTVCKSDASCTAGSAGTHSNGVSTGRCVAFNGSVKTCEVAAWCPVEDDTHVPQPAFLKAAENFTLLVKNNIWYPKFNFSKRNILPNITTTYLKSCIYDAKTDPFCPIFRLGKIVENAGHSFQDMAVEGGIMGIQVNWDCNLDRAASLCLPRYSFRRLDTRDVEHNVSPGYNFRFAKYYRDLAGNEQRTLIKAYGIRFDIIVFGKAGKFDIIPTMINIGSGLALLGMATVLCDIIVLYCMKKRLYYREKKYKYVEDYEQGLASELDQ

T3: human P2X7 (human, UniProt Q99572 1-595)
T3 construct: on transfected Hek293 cells; also called hP2X7
T3 sequence: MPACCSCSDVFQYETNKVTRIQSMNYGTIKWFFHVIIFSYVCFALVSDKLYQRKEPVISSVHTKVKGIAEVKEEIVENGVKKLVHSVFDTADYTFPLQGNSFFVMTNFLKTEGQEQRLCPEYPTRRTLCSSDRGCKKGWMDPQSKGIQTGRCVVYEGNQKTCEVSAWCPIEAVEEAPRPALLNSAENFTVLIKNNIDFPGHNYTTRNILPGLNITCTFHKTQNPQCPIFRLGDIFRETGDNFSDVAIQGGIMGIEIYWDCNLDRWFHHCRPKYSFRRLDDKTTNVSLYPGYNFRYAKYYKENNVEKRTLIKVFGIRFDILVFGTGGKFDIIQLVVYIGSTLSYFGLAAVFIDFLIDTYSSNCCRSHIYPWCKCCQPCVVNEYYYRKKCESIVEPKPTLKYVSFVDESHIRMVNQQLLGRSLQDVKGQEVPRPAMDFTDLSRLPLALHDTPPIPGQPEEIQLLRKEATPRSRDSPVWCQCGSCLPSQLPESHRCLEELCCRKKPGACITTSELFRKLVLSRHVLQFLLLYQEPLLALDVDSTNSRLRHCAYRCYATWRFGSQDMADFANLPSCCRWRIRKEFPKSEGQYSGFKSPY


Legend:
mouse P2X7 [1] = biological target: T1, mouse P2X7; assay: phage ELISA on fixed mP2X7-CHO vs untransfected CHO cells;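 further: phage culture supernatant diluted 10-fold, applied for 1 h to paraformaldehyde-fixed, BSA-blocked cells in 96-well plates, with bound phage read via HRP-linked anti-M13 antibody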
Procedure: (§1) Sub-confluent cells were rinsed with PBS and fixed using 4% paraformaldehyde in PBS for 10 minutes at RT. Fixed cells were washed three times with PBS, and blocked with 2% BSA in PBS for 2 hours. Following blocking, 10-fold diluted culture supernatant containing phage was added and incubated for 1 hour. Cell-bound phage was detected via mouse anti-M13-HRP-conjugate (GE Healthcare, Cat nr. E2886). Rat mAb Hano43 was used as positive control.

human P2X4 = biological target: T2, human P2X4; assay: flow cytometry, Nanobody pre-incubated with anti-Myc-FITC
human P2X7 = biological target: T3, human P2X7; assay: as above
mouse P2X7 [2] = biological target: T1, mouse P2X7; assay: flow cytometry, periplasmic extract pre-incubated with anti-myc-FITC, on mP2X7-Hek293 cells;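 further: periplasmic extract diluted 10-fold and premixed 45 min at 4 °C with FITC anti-myc antibody, giving pseudo-bivalent Nanobodies, before binding to the cells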
Procedure: Ten-fold diluted PE were pre-incubation with 0.5 μg anti-myc FITC-conjugated antibodies (AbD Serotec, cat no. MCA2200F) (creating pseudo-bivalent Nanobodies in order to increase binding strength) in 0.1 ml PBS/10% FCS for 45 minutes at 4° C. […] Alternatively, sequential staining of 10-fold diluted PE with anti-myc FITC-conjugated antibodies was done after incubation with the cells.

mouse P2X7 [3] = biological target: T1, mouse P2X7; assay: phage ELISA, mP2X7-CHO vs control CHO cells
Procedure: as §1

Row | Binder | Fold Cho P2X7/wt (phage ELISA) (mouse P2X7 [1]) | binding result (human P2X4) | binding result (human P2X7) | MFI FACS (pre-Myc incubation) (mouse P2X7 [2]) | absorption ratio (ELISA) (mouse P2X7 [3])
1 | P2X7PMP1G6 (VHH, family 15; on phage or c-myc/His6-tagged in assays) VHH: EVQLVESGGGLVQAGGSLRLSCAASPGAFSSFNMGWFRQTPGKEREFVAATSWSDISTYYADSVKGRFTISRDNAKNTVTLEMNSLKPEDTAVYYCAAGYYRGGYLGYRLTLEGSYDVWGQGTQVTVSS | 12 fold | no binding (tested: 147 nM) | no binding (tested: 147 nM) | 11 MFI | 12 ratio
2 | P2X7PMP16D9 (VHH, family 15; on phage or c-myc/His6-tagged in assays) VHH: EVQLVESGGGLVQAGGSLRLSCAASPGTFSSFNMGWFRQTPGKEREFVAATSWSDISTYYADSVKGRFTISRDNAKNTVTLEMNSLKPEDTAVYYCAAGYYRGGYLGYRLTLEGSYDVWGQGTQVTVSS | 7 fold | no binding (tested: 147 nM) | no binding (tested: 147 nM) | 53 MFI | 7 ratio
3 | P2X7PMP1A8 (VHH, family 2; on phage or c-myc/His6-tagged in assays) VHH: EVQLVESGGGLVQTGGSLRLSCAASGFTLDDYAIAWFRQAPGKEREGVSILSSIGKTFYADSVKDRFSITADGAKTTVFLQMNSLKPGDTAIYYCVAGHFVYNDGAISLNTARGSGFWGQGAQVTVSS | 20 fold | no binding (tested: 147 nM) | no binding (tested: 147 nM) | 18 MFI | 21 ratio
4 | P2X7PMP1C9 (VHH, family 2; on phage or c-myc/His6-tagged in assays) VHH: EVQLVESGGGLVQTGGSLRLSCAASGFTLDDYAIAWFRQAPGKEREGVSILSSIGKTFYADSVKDRFSITADGAKTTVFLQMNSLKPEDTAIYYCVAGHFVYNDGAISLNTARGSGFWGQGAQVTVSS |  |  |  | 19 MFI | 6 ratio
5 | P2X7PMP20C9 (VHH, family 2; on phage or c-myc/His6-tagged in assays) VHH: EVQLVESGGGLVQTGGSLRLSCAASGFTLDDYAIAWFRQAPGKEREGVSILSSIGKTFYADSAKDRFSITADGAKTTVFLQMNSLKPEDTAIYYCVAGHFVYNDGAISLNTARGSGFWGQGTQVTVSS | 11 fold | no binding (tested: 147 nM) | no binding (tested: 147 nM) | 97 MFI | 11 ratio
6 | P2X7PMP20B10 (VHH, family 2; on phage or c-myc/His6-tagged in assays) VHH: EVQLVESGGGLVQTGGSLRLSCAASGFTLDDYAIAWFRQAPGKEREGVSILSSIGKTFYADSVKDRFSITADGAKTTVFLQMNSLKPEDTAIYYCVAGHFVYNDGAISLNTARGSGFWGQGTQVTVSS |  |  |  | 85 MFI | 8 ratio
7 | P2X7PMP18C1 (VHH, family 25; on phage or c-myc/His6-tagged in assays) VHH: EVQLVESGGDLVQPGGSLRLSCVASGFALEEHAIGWFRQAPGKEREGVSLSSYLGAAYYATSVKGRFTISRDNAKNTVTLQMNSLKPEDTAVYYCARGHFTYDDGRITIRSVDYWGKGTLVTVSS | 18 fold | no binding (tested: 147 nM) | no binding (tested: 147 nM) | 63 MFI | 18 ratio
8 | P2X7PMP6A11 (VHH, family 5, 2; on phage or c-myc/His6-tagged in assays) VHH: EVQLVESGGGLVQAGGSLRLSCAASGNFFRVNTMAWYRQAPGKQRELVADITRGDRTNYADTVNGRFTISRDNVRNTVYLQMNGLKPEDTAAYYCYARIELGVLEPRDYWGQGTQVTVSS |  |  |  | 53 MFI | 17 ratio
9 | P2X7PMP8H5 (VHH, family 5, 2; on phage or c-myc/His6-tagged in assays) VHH: EMQLVESGGGLVQAGGSLRLSCAASGNFFRVNTMAWYRQAPGKQRELVADITRGDRTNYADTVNGRFTISRDNVRNTVYLQMNGLKPEDTAAYYCYARIELGVLEPRDYWGQGTQVTVSS |  |  |  | 24 MFI | 12 ratio
10 | P2X7PMP8D10 (VHH, family 5, 3; on phage or c-myc/His6-tagged in assays) VHH: EVQLVESGGGLVQPGGSLRLSCAASGSFFRVNNMAWYRQAPGKQRELVADITRGDRTNYADSVNGRFTISRDNVRNTVYLQMNGLKPEDTAVYYCYATIELGVLEPRDYWGQGTQVTVSS |  |  |  | 94 MFI | 18 ratio
11 | P2X7PMP8H4 (VHH, family 5, 3; on phage or c-myc/His6-tagged in assays) VHH: EVQLVESGGGLVQAGGSLRLSCAASGSFFRVNNMAWYRQGPGKQRELVADITRGDRTNYADSVNGRFTISRDNVRNTVYLQMDGLKPEDTAVYYCYATIELGVLVPRDYWGQGTQVTVSS |  |  |  | 65 MFI | 27 ratio
12 | P2X7PMP8A11 (VHH, family 5, 2; on phage or c-myc/His6-tagged in assays) VHH: EVQLVESGGGLVQAGGSLRLSCAASGSFFRVNNMAWYRQAPGKQRELVADITRGDRTNYADSVNGRFTISRDNVRNTVYLQMDGLKPEDTAVYYCYARIELGVLVPRDYWGQGTQVTVSS |  |  |  | 17 MFI | 11 ratio
13 | P2X7PMP8E6 (VHH, family 5, 2; on phage or c-myc/His6-tagged in assays) VHH: EVQLVESGGGLVQAGGPLRLSCAASGNFFRVNTMAWYRQAPGKQRELVADITRGDRTNYADTVNGRFTISRDNVRNTVYLQMNGLKPEDTAAYYCYARIELGVLEPRDYWGQGTQVTVSS |  |  |  | 69 MFI | 12 ratio
14 | P2X7PMP8C12 (VHH, family 5, 3; on phage or c-myc/His6-tagged in assays) VHH: EVQLVESGGGLVQAGGSLRLSCAASGSFFRVNNMAWYRQAPGKQRELVADITRGDRTNYADSVNGRFTISRDNVRNTVYLQMNGLKPEDTAVYYCYATIELGVLEPRDYWGQGTQVTVSS |  |  |  | 89 MFI | 28 ratio
15 | P2X7PMP8H10 (VHH, family 5, 3; on phage or c-myc/His6-tagged in assays) VHH: EVQLVESGGGLVQAGGSLRLSCAASGSFFRVNNMAWYRQGPGKQRELVADITRGDRTNYADSVNGRFTISRDNVRNTVYLQMNGLKPEDTAVYYCYATIELGVLEPRDYWGQGTQVTVSS |  |  |  | 94 MFI | 19 ratio
16 | P2X7PMP8B12 (VHH, family 5, 3; on phage or c-myc/His6-tagged in assays) VHH: EVQLVESGGGLVQAGGSLRLSCAASGSFFRVNVMAWYRQGPGKQRELVADITRGDRTNYADSVNGRFTISRDNVRNTVYLQMNGLKPEDTAVYYCYATIELGVLEPRDYWGQGTQVTVSS |  |  |  | 93 MFI | 38 ratio
17 | P2X7PMP8B4 (VHH, family 5, 2; on phage or c-myc/His6-tagged in assays) VHH: EVQLVESGGGLVQAGGSLRLSCAASGNFFRVNTMAWYRQAPGKQRELVADITRGDRTNYADTVNGRFTISRDNVRNTVYLQMNSLKPEDTAAYYCYARIELGVLEPRDYWGQGTQVTVSS |  |  |  | 71 MFI | 13 ratio
18 | P2X7PMP8H6 (VHH, family 5, 2; on phage or c-myc/His6-tagged in assays) VHH: EVQLVESGGGLVQAGGSLRLSCAASGSFFRVNNMAWYRQAPGKQRELVADITRGDRTNYADSVNGRFTISRDNVRNTVYLQMNGLKPEDTAVYYCYARIELGPLVPRDYWGQGTQVTVSS |  |  |  | 43 MFI | 17 ratio
